Data reported in paper PMC8067865 (Molecules, 2021).

Experiments:
Assay in all cases: native MS; 3 to 4.5 uM purified P dimers, buffer exchanged to ammonium acetate (GII.10 Vietnam 125 mM; GII.17 Kawasaki and GII.4 Saga 300 mM; GII.4 MI001 250 mM) pH 7.5; nano-ESI, positive ion mode, 25 °C; monomer-dimer
[1] = molecular target: GII.17 Kawasaki 308 P domain (VP1 residues 225-530) (human norovirus GII.17 Kawasaki 308)
[2] = molecular target: GII.4 MI001 P domain (VP1 residues 225-530), wildtype N373 (human norovirus GII.4 MI001)
[3] = molecular target: partially deamidated GII.4 MI001 P domain (VP1 residues 225-530), approximately 64% deamidated at N373 (human norovirus GII.4 MI001)
[4] = molecular target: fully deamidated (iDiD) GII.4 Saga P domain (VP1 residues 225-530), N373 converted to iso-aspartate (human norovirus GII.4 Saga 2006) (UniProt B5BTR7)
[5] = molecular target: GII.10 Vietnam 026 P domain (VP1 residues 224-538) (human norovirus GII.10 Vietnam 026)
[6] = molecular target: the molecule itself

GII.17 Kawasaki 308 P domain (VP1 residues 225-530) (domain or fragment)
stoichiometry N [1]: 2

GII.4 MI001 P domain (VP1 residues 225-530), wildtype N373 (domain or fragment)
stoichiometry N [2]: 2

partially deamidated GII.4 MI001 P domain (VP1 residues 225-530), approximately 64% deamidated at N373 (domain or fragment)
percent monomers [3]: 16%

fully deamidated (iDiD) GII.4 Saga P domain (VP1 residues 225-530), N373 converted to iso-aspartate (from UniProt B5BTR7 225-530) (domain or fragment)
percent monomers [4]: 32%

GII.10 Vietnam 026 P domain (VP1 residues 224-538) (domain or fragment)
stoichiometry N [5]: 2

B1: GII.4 Saga 2006 P domain (VP1 residues 225-530), wildtype N373 (NN) (domain or fragment)
chain: GPGSKPFTVPILTVEEMTNSRFPIPLEKLFTGPSGAFVVQPQNGRCTTDGVLLGTTQLSPVNICTFRGDVTHIAGSRNYTMNLASLNWNNYDPTEEIPAPLGTPDFVGKIQGLLTQTTKGDGSTRGHKATVYTGSAPFTPKLGSVQFSTDTENDFETHQNTKFTPVGVIQDGSTTHRNEPQQWVLPSYSGRNVHNVHLAPAVAPTFPGEQLLFFRSTMPGCSGYPNMDLDCLLPQEWVQHFYQEAAPAQSDVALLRFVNPDTGRVLFECKLHKSGYVTVAHTGQHDLVIPPNGYFRFDSWVNQFYTLAPM
notes: major capsid protein VP1 of human norovirus GII.4 Saga 2006, protruding (P) domain, VP1 residues 225-530; also called GII.4 Saga P dimer; wildtype GII.4 Saga P domains; source: E. coli BL21(DE3), purified (Ni-NTA, HRV 3C cleavage, SEC; cation exchange to separate pure N373 wildtype); not shown: two His-tags, N-terminal, cleaved
stoichiometry N [6]: 2
